Experimental findings from publication PMC7213983 are described below.

Test [1] deals with human S100A9 M63F (human) (UniProt P06702). Description: SEC-MALS; Superose 12 10/300 GL; samples at 0.5-2 mg/ml in tris buffer (25 mM tris, 100 mM NaCl, pH 7.4) + 0.5 mM CaCl2; flow 0.2 ml/min.
A further test deals with chicken MRP126 (chicken) (UniProt P28318). The test is described as above.
The target of a further test is human S100A9 (human) (UniProt P06702). Described as above.
Test [2] addresses opossum Toll-like receptor 4 (opossum).
The next test addresses human S100A12 (human) (UniProt P80511). Description: SEC-MALS; Superose 12 10/300 GL; samples at 0.5-2 mg/ml in tris buffer (25 mM tris, 100 mM NaCl, pH 7.4) + 0.5 mM CaCl2; flow 0.2 ml/min. For orientation: In gel filtration, larger molecules generally elute earlier.

As for “human S100A9 M63F (from UniProt P06702 1-114) (natural protein)”, the stoichiometry N in test [1] came out at 2.
On to “chicken MRP126 (from UniProt P28318 1-119) (natural protein)”, for which, in the test with chicken MRP126 (chicken), the stoichiometry N was determined as 2.
On to “human S100A9 (from UniProt P06702 1-114) (natural protein)”, for which the stoichiometry N with human S100A9 (human) was found to be 2.
Consider opossum S100A9 (natural protein), for which the NF-κB luciferase reporter in HEK293T cells transfected with opossum TLR4, MD-2 and CD14; activity against that of human A9 (fold of human A9 activity) in test [2] came to 0.5.
Turning to “human S100A12 (from UniProt P80511 1-92) (natural protein)”, the stoichiometry N in the test with human S100A12 (human) worked out at 2.

By stoichiometry N is commonly meant a count of units in the complex or per binding partner.
